T1: human Tom70 (residues 108–608) (human, UniProt O94826 108-608)
T1 construct: human Tom70 (translocase of outer mitochondria membrane 70), residues 108-608; N-terminal Avi tag, His6 tag, (GGS)5 linker and TEV site removed by TEV protease; also called hTom70; free Tom70; source: E. coli BL21 (DE3), purified (Ni-NTA, TEV cleavage, second Ni column, SEC); not shown: Avi, N-terminal, cleaved; His6, N-terminal, cleaved
T1 sequence: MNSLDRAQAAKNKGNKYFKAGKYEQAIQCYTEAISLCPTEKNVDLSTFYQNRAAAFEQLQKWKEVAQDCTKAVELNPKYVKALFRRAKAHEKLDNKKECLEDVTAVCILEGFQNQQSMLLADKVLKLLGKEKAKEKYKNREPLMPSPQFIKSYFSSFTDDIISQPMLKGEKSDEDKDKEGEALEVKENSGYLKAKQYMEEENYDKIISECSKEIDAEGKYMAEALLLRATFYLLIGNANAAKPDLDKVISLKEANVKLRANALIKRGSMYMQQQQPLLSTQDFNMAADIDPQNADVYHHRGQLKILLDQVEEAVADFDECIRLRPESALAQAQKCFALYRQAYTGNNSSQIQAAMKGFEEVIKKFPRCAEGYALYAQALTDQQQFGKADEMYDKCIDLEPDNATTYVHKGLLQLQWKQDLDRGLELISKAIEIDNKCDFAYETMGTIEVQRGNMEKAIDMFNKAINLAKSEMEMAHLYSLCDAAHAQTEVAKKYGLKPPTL

T2: ^19F-labeled Tom70 (5-fluoro-tryptophan, residues 108–608) (human, UniProt O94826 108-608, 5-fluoro-tryptophan at W169 and W523)
T2 construct: human Tom70, residues 108-608; also called ^19F Tom70; 5F-Trp Tom70; source: E. coli BL21(DE3) in M9 media supplemented with 5-fluoro-tryptophan, purified as unlabeled Tom70; not shown: Avi, N-terminal, cleaved; His6, N-terminal, cleaved
T2 sequence: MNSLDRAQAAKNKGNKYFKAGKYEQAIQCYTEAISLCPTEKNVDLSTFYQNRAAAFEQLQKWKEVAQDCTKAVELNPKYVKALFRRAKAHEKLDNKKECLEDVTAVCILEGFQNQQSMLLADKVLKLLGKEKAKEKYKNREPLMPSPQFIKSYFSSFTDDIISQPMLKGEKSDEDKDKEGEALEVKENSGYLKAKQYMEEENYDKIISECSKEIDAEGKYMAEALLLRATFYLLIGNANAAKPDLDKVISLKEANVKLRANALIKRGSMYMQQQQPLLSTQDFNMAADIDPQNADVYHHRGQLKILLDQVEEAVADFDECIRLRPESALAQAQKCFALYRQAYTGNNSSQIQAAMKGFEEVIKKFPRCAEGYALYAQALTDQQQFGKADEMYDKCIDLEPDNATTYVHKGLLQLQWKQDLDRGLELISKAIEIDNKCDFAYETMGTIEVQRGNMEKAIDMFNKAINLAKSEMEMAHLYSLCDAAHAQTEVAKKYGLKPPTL

B1: Orf9b_(Helix) peptide (peptide)
peptide: IILRLGSPLSLNMARKTLNSLEDKAFQLTPIAVQY
notes: SARS-CoV-2 Orf9b residues 44-77, the helical region seen in the Tom70-Orf9b structure; tyrosine added to aid with quantification
B2: Tom70:Orf9b_(Helix) complex (complex)
chain 1: MNSLDRAQAAKNKGNKYFKAGKYEQAIQCYTEAISLCPTEKNVDLSTFYQNRAAAFEQLQKWKEVAQDCTKAVELNPKYVKALFRRAKAHEKLDNKKECLEDVTAVCILEGFQNQQSMLLADKVLKLLGKEKAKEKYKNREPLMPSPQFIKSYFSSFTDDIISQPMLKGEKSDEDKDKEGEALEVKENSGYLKAKQYMEEENYDKIISECSKEIDAEGKYMAEALLLRATFYLLIGNANAAKPDLDKVISLKEANVKLRANALIKRGSMYMQQQQPLLSTQDFNMAADIDPQNADVYHHRGQLKILLDQVEEAVADFDECIRLRPESALAQAQKCFALYRQAYTGNNSSQIQAAMKGFEEVIKKFPRCAEGYALYAQALTDQQQFGKADEMYDKCIDLEPDNATTYVHKGLLQLQWKQDLDRGLELISKAIEIDNKCDFAYETMGTIEVQRGNMEKAIDMFNKAINLAKSEMEMAHLYSLCDAAHAQTEVAKKYGLKPPTL
chain 2: IILRLGSPLSLNMARKTLNSLEDKAFQLTPIAVQY
notes: human Tom70, residues 108-608; SARS-CoV-2 Orf9b residues 44-77; tyrosine added to aid with quantification; not shown: Avi, N-terminal, cleaved; His6, N-terminal, cleaved

What was measured:
Conditions in all cases: both partners purified
[1] = molecular target: T3, Tom70:Hsp90_(EEVD) complex (human, UniProt O94826 108-608, C-terminus not amidated (free carboxyl)); test: ITC; Orf9b_(Helix) (120 μM) titrated into 15 μM Tom70 or Tom70:Hsp90_(EEVD) complex (15 μM Tom70: 400 μM Hsp90_(EEVD)); 20°C; 20 mM sodium phosphate pH 7, 100 mM NaCl, 2 mM TCEP; 1:1 binding model
T3 construct: human Tom70, residues 108-608; tyrosine added to aid with quantification; C-terminal residues 724-732 of human Hsp90α; also called Tom70 complexed with Hsp90_(EEVD) peptide; not shown: Avi, N-terminal, cleaved; His6, N-terminal, cleaved

[2] = molecular target: T1, human Tom70 (residues 108–608); test: as above
[3] = molecular target: T2, ^19F-labeled Tom70 …; test: NMR titration; […]) 130 μM, […]) 400 μM, […]; 25°C; […]
[4] = molecular target: T4, human Hsp90α (residues 1–732), full-length (human, UniProt P07900 1-732); test: ITC; […] (400 μM), […] (400 μM), […] (500 μM) […] (20 μM); 20°C; 20 mM sodium phosphate pH 8, 150 mM NaCl, 2 mM TCEP, 10% glycerol; 1:1 binding model
T4 construct: human Hsp90α, residues 1-732; also called full-length Hsp90; heat shock protein 90; source: E. coli BL21 Star (DE3) pLysS, purified (Ni-INDIGO, TEV cleavage, second Ni-INDIGO, HiPrep Q); not shown: Avi, N-terminal, cleaved; His6, N-terminal, cleaved

Row | Binder | binding result [1] | binding result [2] | binding result [3] | fold by which the inhibitory effect of full-length Orf9b exceeds that of Orf9b_(Helix) [4]
1 | B1 | binds | binds | binds | –
2 | B2 | – | – | – | 2.4 fold

— publication doi:10.1101/2025.11.18.689095 (bioRxiv, 2025)
